Molecular target: T1, WDR43 (human, UniProt Q15061 1-677, limits assumed)
T1 construct: Called a core transcriptional assembly factor at TSS; Endogenous protein from lysate
T1 sequence (looked up): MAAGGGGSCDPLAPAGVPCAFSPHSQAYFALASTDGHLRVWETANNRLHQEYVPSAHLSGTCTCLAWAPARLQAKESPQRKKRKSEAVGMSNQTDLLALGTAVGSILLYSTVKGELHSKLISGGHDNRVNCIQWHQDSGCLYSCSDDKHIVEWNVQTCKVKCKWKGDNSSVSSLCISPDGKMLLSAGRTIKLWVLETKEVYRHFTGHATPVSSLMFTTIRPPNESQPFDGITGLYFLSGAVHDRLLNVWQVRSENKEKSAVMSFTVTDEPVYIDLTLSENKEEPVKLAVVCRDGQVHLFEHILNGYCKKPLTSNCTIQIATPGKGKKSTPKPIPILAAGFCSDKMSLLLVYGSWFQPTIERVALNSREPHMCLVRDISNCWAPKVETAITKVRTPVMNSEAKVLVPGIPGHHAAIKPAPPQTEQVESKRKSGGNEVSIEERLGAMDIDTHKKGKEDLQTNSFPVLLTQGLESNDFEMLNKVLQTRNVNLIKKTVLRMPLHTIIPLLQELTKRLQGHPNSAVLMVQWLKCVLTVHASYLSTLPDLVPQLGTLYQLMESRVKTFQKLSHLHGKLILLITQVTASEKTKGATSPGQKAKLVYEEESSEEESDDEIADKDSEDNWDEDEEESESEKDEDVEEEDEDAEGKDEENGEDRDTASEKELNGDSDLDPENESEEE
Assay: co-immunoprecipitation of ectopically expressed HA-tagged RIOK2 with monoclonal anti-HA antibody beads, then LC-MS/MS; spectral counts normalised to the immunoprecipitated HA-RIOK2, fold change with respect to WT
Protocol: For collection of cellular lysates, lysis was similarly performed as described above. 5% of the supernatant was saved as Input, and pre-washed monoclonal anti-HA antibody tagged-agarose beads slurry (A2095, Sigma Aldrich) was added to the rest of the supernatant and incubated at 4° C. on a rocker O/N. The beads were washed with RIPA lysis buffer, resuspended in 2× laemmli buffer, boiled at 95° C. for 10 minutes, and immediately loaded for SDS-PAGE separation. Electrophoresis was performed until the proteins ran 1/6th of the entire gel size. The gel was Coomassie stained for 1 h at 25° C., de-stained at 4° C. O/N, and were cut with sterile blades, washed with MS-grade acetonitrile solution and submitted for Mass Spectrometry analysis at BIDMC Mass Spectrometry Core. […]
Gel separated protein samples were reduced with 55 mM DTT, alkylated with 10 mM iodoacetamide (Sigma-Aldrich), and digested O/N with TPCK modified trypsin/LysC (Promega) at pH=8.3. […] 3 μL of the digested protein samples were analyzed in positive ion mode via microcapillary tandem mass spectrometry (LC-MS/MS) using a high resolution hybrid QExactive HF Orbitrap Mass Spectrometer (Thermo Fisher Scientific) via HCD with data-dependent analysis (DDA) with 1 MS1 scan followed by 8 MS2 scans per cycle (Top 8). […]

B1: ΔTAD2 (enzyme, not shown: small tags and cut ends)
chain: MGKVNVAKLRYMSRDDFRVLTAVEMGMKNHEIVPGSLIASIASLKHGGCNKVLRELVKHKLIAWERTKTVQGYRLTRQVVESVGNQMGVGKESDIYIVANEEGQQFALKLHRLGRTSFRNLKNKRDYHKHRHNVSWLYLSRLSAMKEFAYMKALYERKFPVPKPIDYNRHAVVMELINGYPLCQIHHVEDPASVYDEAMELIVKLANHGLIHGDFNEFNLILDESDHITMIDFPQMVSTSHPNAEWYFDRDVKCIKDFFMKRFSYESELFPTFKDIRREDTLDVEVSASGYTKEMQADDELLHPLGPDDKNIETKEGSEFSFSDGEVAEKAEVYGSENESERNCLEESEGCYCRSSGDPEQIKEDSLSEESADARSFEMTEFNQALEEIKGQVVENNSVTEFSEEKNRTENYNRQDGQRVQGGVPAGSDEYEDECPHLIALSSLNREFRPFRDEENVGAMNQYRTRTLSITSSGSAVSCSTIPPELVKQKVKRQLTKQQKSAVRRRLQKGEANIFTKQRRENMQNIKSSLEAASFWGE
notes: The text defines it as N-terminal HA-tagged RIOK2 with amino acids 77-90 deleted; also called HA-ΔTAD2
binding result: no binding

Source: patent publication US20250381241A1 (Dana-Farber, published 2025)
